Numbering of substitutions follows the chain as printed. Names and notes keep the numbering of the source. One block for each binder: values may come before it.
What was measured:
[1] = molecular target: the molecule itself; test: SEC; Hiload 26/60 Superdex 200 calibrated with molecular weight markers; without PIP2
[2] = molecular target: T1, GST tagged vinculin tail domain (GST-Vt; residues 879–1,066) (human, UniProt P18206-2 879-1066); test: pull-down; GST-Vt on GST-Sepharose beads, with or without PIP2; tail domains (MVt, MVt-ΔH1) or Vh2–Vh3 as negative control; SDS-PAGE and Western blot with HRP-conjugated αHis or αGST antibodies; settings: both partners purified
T1 construct: human vinculin tail domain, residues 879-1,066 of vinculin (1,066-residue isoform), cloned in pGEX-4T-1; source: E. coli BL21-DE3, purified (GSTrap FF, Superdex 75)
T1 sequence (looked up): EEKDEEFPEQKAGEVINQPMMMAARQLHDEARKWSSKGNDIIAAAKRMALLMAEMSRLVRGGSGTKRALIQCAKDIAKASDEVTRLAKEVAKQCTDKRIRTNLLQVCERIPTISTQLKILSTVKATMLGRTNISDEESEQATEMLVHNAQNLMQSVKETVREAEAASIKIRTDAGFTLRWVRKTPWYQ

[3] = molecular target: T2, head domain of vinculin (VH; residues 1–843) (human, UniProt P18206 1-843); test: native gel or EMSA; reciprocal tail displacement: competing tail domains titrated into preformed VH:tail complexes at 2- and 10-fold molar excess; details in Methods S1; settings: both partners purified
T2 construct: human vinculin head domain, residues 1-843 (the same in vinculin and metavinculin)
T2 sequence (looked up): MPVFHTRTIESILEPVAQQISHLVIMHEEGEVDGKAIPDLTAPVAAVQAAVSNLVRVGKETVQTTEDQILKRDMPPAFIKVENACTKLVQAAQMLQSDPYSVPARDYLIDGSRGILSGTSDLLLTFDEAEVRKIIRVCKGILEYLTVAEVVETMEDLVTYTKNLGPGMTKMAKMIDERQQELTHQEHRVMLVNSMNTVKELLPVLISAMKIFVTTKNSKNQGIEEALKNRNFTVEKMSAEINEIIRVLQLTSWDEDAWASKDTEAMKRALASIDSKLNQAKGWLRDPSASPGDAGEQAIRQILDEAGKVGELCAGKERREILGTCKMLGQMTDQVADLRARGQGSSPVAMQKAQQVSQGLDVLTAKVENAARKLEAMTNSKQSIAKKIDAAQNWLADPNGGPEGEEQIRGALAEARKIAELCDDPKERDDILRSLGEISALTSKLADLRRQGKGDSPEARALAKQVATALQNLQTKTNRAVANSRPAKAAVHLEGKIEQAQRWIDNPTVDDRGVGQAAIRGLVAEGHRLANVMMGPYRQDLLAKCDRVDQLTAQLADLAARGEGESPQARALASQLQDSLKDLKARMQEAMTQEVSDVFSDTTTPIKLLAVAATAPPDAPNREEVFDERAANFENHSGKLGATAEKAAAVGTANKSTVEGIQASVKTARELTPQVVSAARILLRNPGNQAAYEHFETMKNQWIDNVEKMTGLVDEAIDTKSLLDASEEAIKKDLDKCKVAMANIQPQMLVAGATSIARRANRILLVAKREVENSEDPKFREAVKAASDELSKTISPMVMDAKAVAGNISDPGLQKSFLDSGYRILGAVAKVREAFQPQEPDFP

binding result [3]: binds
B4: MVt-ΔH1 (residues 959–1,130) (domain or fragment, human, UniProt P18206 959-1130, looked up)
chain: NQPVNQPILAAAQSLHREATKWSSKGNDIIAAAKRMALLMAEMSRLVRGGSGTKRALIQCAKDIAKASDEVTRLAKEVAKQCTDKRIRTNLLQVCERIPTISTQLKILSTVKATMLGRTNISDEESEQATEMLVHNAQNLMQSVKETVREAEAASIKIRTDAGFTLRWVRKT
notes: human metavinculin (1,134 residues), residues 959-1,130 (five-helix bundle H1′, H2-H5); The His-detected form of the pull-down is m17; also called MVt five-helix bundle (α-helices H1′, H2–H5); not shown: His8, N-terminal, cleaved

binding result [3]: binds
B6: MVt-R975W (residues 879–1134) (domain or fragment, human, UniProt P18206 879-1134, looked up)
chain: EEKDEEFPEQKAGEVINQPMMMAARQLHDEARKWSSKPGIPAAEVGIGVVAEADAADAAGFPVPPDMEDDYEPELLLMPSNQPVNQPILAAAQSLHWEATKWSSKGNDIIAAAKRMALLMAEMSRLVRGGSGTKRALIQCAKDIAKASDEVTRLAKEVAKQCTDKRIRTNLLQVCERIPTISTQLKILSTVKATMLGRTNISDEESEQATEMLVHNAQNLMQSVKETVREAEAASIKIRTDAGFTLRWVRKTPWYQ
notes: human metavinculin tail domain, residues 879-1,134, with the cardiomyopathy-associated mutation Arg975Trp; also called MVt-Arg975Trp; not shown: His6, N-terminal, cleaved

More lines, now with the values behind:

B1: metavinculin-ΔH1′ (lacking residues 963–983) (natural protein, human, UniProt P18206 1-1134, looked up)
chain: MPVFHTRTIESILEPVAQQISHLVIMHEEGEVDGKAIPDLTAPVAAVQAAVSNLVRVGKETVQTTEDQILKRDMPPAFIKVENACTKLVQAAQMLQSDPYSVPARDYLIDGSRGILSGTSDLLLTFDEAEVRKIIRVCKGILEYLTVAEVVETMEDLVTYTKNLGPGMTKMAKMIDERQQELTHQEHRVMLVNSMNTVKELLPVLISAMKIFVTTKNSKNQGIEEALKNRNFTVEKMSAEINEIIRVLQLTSWDEDAWASKDTEAMKRALASIDSKLNQAKGWLRDPSASPGDAGEQAIRQILDEAGKVGELCAGKERREILGTCKMLGQMTDQVADLRARGQGSSPVAMQKAQQVSQGLDVLTAKVENAARKLEAMTNSKQSIAKKIDAAQNWLADPNGGPEGEEQIRGALAEARKIAELCDDPKERDDILRSLGEISALTSKLADLRRQGKGDSPEARALAKQVATALQNLQTKTNRAVANSRPAKAAVHLEGKIEQAQRWIDNPTVDDRGVGQAAIRGLVAEGHRLANVMMGPYRQDLLAKCDRVDQLTAQLADLAARGEGESPQARALASQLQDSLKDLKARMQEAMTQEVSDVFSDTTTPIKLLAVAATAPPDAPNREEVFDERAANFENHSGKLGATAEKAAAVGTANKSTVEGIQASVKTARELTPQVVSAARILLRNPGNQAAYEHFETMKNQWIDNVEKMTGLVDEAIDTKSLLDASEEAIKKDLDKCKVAMANIQPQMLVAGATSIARRANRILLVAKREVENSEDPKFREAVKAASDELSKTISPMVMDAKAVAGNISDPGLQKSFLDSGYRILGAVAKVREAFQPQEPDFPPPPPDLEQLRLTDELAPPKPPLPEGEVPPPRPPPPEEKDEEFPEQKAGEVINQPMMMAARQLHDEARKWSSKPGIPAAEVGIGVVAEADAADAAGFPVPPDMEDDYEPELLLMPSNQPVGNDIIAAAKRMALLMAEMSRLVRGGSGTKRALIQCAKDIAKASDEVTRLAKEVAKQCTDKRIRTNLLQVCERIPTISTQLKILSTVKATMLGRTNISDEESEQATEMLVHNAQNLMQSVKETVREAEAASIKIRTDAGFTLRWVRKTPWYQ
notes: human metavinculin, full length (1-1,134) lacking residues 963-983 (α-helix H1′): 1-962 joined to 984-1,134; also called MV-ΔH1′; source: E. coli BL21-DE3, purified (as full-length metavinculin); not shown: His8, N-terminal, kept
stoichiometry N [1]: 2

B2: metavinculin-ΔH1ΔH1′ (lacking residues 895–915 and 963–983) (natural protein, human, UniProt P18206 1-1134, looked up)
chain: MPVFHTRTIESILEPVAQQISHLVIMHEEGEVDGKAIPDLTAPVAAVQAAVSNLVRVGKETVQTTEDQILKRDMPPAFIKVENACTKLVQAAQMLQSDPYSVPARDYLIDGSRGILSGTSDLLLTFDEAEVRKIIRVCKGILEYLTVAEVVETMEDLVTYTKNLGPGMTKMAKMIDERQQELTHQEHRVMLVNSMNTVKELLPVLISAMKIFVTTKNSKNQGIEEALKNRNFTVEKMSAEINEIIRVLQLTSWDEDAWASKDTEAMKRALASIDSKLNQAKGWLRDPSASPGDAGEQAIRQILDEAGKVGELCAGKERREILGTCKMLGQMTDQVADLRARGQGSSPVAMQKAQQVSQGLDVLTAKVENAARKLEAMTNSKQSIAKKIDAAQNWLADPNGGPEGEEQIRGALAEARKIAELCDDPKERDDILRSLGEISALTSKLADLRRQGKGDSPEARALAKQVATALQNLQTKTNRAVANSRPAKAAVHLEGKIEQAQRWIDNPTVDDRGVGQAAIRGLVAEGHRLANVMMGPYRQDLLAKCDRVDQLTAQLADLAARGEGESPQARALASQLQDSLKDLKARMQEAMTQEVSDVFSDTTTPIKLLAVAATAPPDAPNREEVFDERAANFENHSGKLGATAEKAAAVGTANKSTVEGIQASVKTARELTPQVVSAARILLRNPGNQAAYEHFETMKNQWIDNVEKMTGLVDEAIDTKSLLDASEEAIKKDLDKCKVAMANIQPQMLVAGATSIARRANRILLVAKREVENSEDPKFREAVKAASDELSKTISPMVMDAKAVAGNISDPGLQKSFLDSGYRILGAVAKVREAFQPQEPDFPPPPPDLEQLRLTDELAPPKPPLPEGEVPPPRPPPPEEKDEEFPEQKAGEVIPGIPAAEVGIGVVAEADAADAAGFPVPPDMEDDYEPELLLMPSNQPVGNDIIAAAKRMALLMAEMSRLVRGGSGTKRALIQCAKDIAKASDEVTRLAKEVAKQCTDKRIRTNLLQVCERIPTISTQLKILSTVKATMLGRTNISDEESEQATEMLVHNAQNLMQSVKETVREAEAASIKIRTDAGFTLRWVRKTPWYQ
notes: human metavinculin, full length (1-1,134) lacking residues 895-915 (H1) and 963-983 (H1′); source: E. coli BL21-DE3, purified (as full-length metavinculin); not shown: His8, N-terminal, kept
stoichiometry N [1]: 2

B3: MVt-ΔH1 (residues 959–1,130) as detected by His-tag Western blot in the GST-Vt pull-down (domain or fragment, human, UniProt P18206 959-1130, looked up)
chain: B4 chain
notes: human metavinculin (1,134 residues), residues 959-1,130; Same construct as m3; source: E. coli, auto-induction media, purified; not shown: His8, N-terminal, kept
binding result [2]: binds

B5: metavinculin tail domain (MVt; residues 879–1,134) (domain or fragment, human, UniProt P18206 879-1134, looked up)
chain: B6 chain with W97R
notes: human metavinculin (1,134 residues) tail domain, residues 879-1,134; Tag-cleaved form as told in the purification methods; the His-detected form of the pull-down is m16; not shown: His6, N-terminal, cleaved
binding result [3]: binds
